Consider 5 molecules from US11994512B2, “Single-cell genomic methods to generate ex vivo cell systems that recapitulate in vivo biology with improved fidelity” (Massachusetts Institute of Technology, priority 2018, dated 2024).

In the assay the test system is intracellular proteome of ENR+CD and ENR organoids. The experiment in a line: LC-MS/MS TMT proteomics of ENR+CD versus ENR organoids. Type of assay: cell-based, C57BL/6 mice. As to conditions: for Average logFC: ENR+CD versus ENR organoids, sample pairs in aggregate (n=4, 2 technical replicates from two biological donors); for M1-1 Log2 Median Normalized / M1-2 Log2 Median Normalized / M2-1 Log2 Median Normalized / M2-2 Log2 Median Normalized: protein abundance ratio ENR+CD versus ENR organoids, LC-MS/MS TMT proteomics; for M1-1 Log2 Median Normalized: sample pair M1-1; for M1-2 Log2 Median Normalized: sample pair M1-2; for M2-1 Log2 Median Normalized: sample pair M2-1; for M2-2 Log2 Median Normalized: sample pair M2-2; for change: up = enriched in ENR+CD, down = enriched in ENR, FDR<0.05 and log fold change cut-off.

B1: Q8BZ20 (protein, UniProt Q8BZ20 1-711, looked up)
chain: MAQAAVAVAEVTQLLCAAGGALELAELRRRLRTSLGTDALERLLRDCGRFVVASRAVVAVGAGREAAAAASERLVLAVSSLRLCRAHQGPKPGCTGLCAQLHLCKFLIYGNCKFLKTGKNCRNGHNLKTDHNLSVLRTHGVDHLTYTELCQLLLQNDPSLLPDICLHYNKGDGPFGSCSFQKQCIKLHICQYFLQGECKFGTSCKRSHEFTNSESLEQLERLGLSSDLVSRLLSTYRNAYDIKNKGSALSKVSPSPAGPQGSSERKDSSGPVSPGTPSQEESEQICLYHIRKSCSFQEKCHRVHFHLPYRWQFLDGGKWKDLDNMELIEEAYSNPSKDRIVYTESAAGFHFDNLDFNSMKFGNTLARRLSTASSVTKPPHFILTTDWIWYWMDEFGSWQEYGRQGSGHPVTTISSSDVERAYLAFCAPGADAQAATLKFQAGKHNYELHFKAFLQKNLVYGTIRKVCRRPKYVSPQDVQMKQSCNTKLHGPKSIPDYWDPAALPDLGFKKITLSSSSEEYQKVWNIFNRTLPFYFVQKIERIQNMGLWEVYQWQKCQMQKQNGGKEVDERQLFHGTSANFVDAICQQNFDWRVCGLHGTSYGKGSYFARDAAYSHHYSKSDTHSHMMFLARVLVGDFVRGSTSFVRPPAKEGQSNAFYDSCVNSMSDPTIFVVFEKHQVYPEYLIQYSTSSKPPASPSIFVALGNLFTSRQ
modifications: full-length
Consider B1, for which the “Average logFC” value is given as 1.138, the “M1-1 Log2 Median Normalized” value came out at 1.138, the “M1-2 Log2 Median Normalized” value is 0.69 and the “M2-1 Log2 Median Normalized” value came out at 1.1465. For the same molecule, the “M2-2 Log2 Median Normalized” value is 1.295 and the change entry is “up”.

B2: Q8BPQ7 (protein, UniProt Q8BPQ7 1-1093, looked up)
chain: MASVPAEAETRQRLLRTVKKEVKQIMEEAVTRKFVHEDSSHIISFCAAVEACVLHGLRRRAAGFLRSNKIAALFMKVGKGFPPAEELSRKVQELEQLIESARNQIQGLQENVRKLPKLPNLSPLAIKHLWIRTALFGRVLDKIVHYLVENSSKYYEKEALLMDPVDGPILASLLVGPCALEYTKMKTADHFWTDPSADELVQRHRIHSSHLRQDSPTKRPALCIQKRHSSGSMDDRPSISARDYVESLHQDSRATLLYGKNNVLVQPRDDMEAVPGYLSLHQTADVMTLKWTPNQLMNGSVGDLDYEKSVYWDYAVTIRLEEIVYLHCHQQVDSGGTVVLVSQDGIQRPPFRFPKGGHLLQFLSCLENGLLPHGQLDPPLWSQRGKGKVFPKLRKRSPQGSSESTSSDKEDDEATDYVFRIIYPGTQSEFVPQDLMDVSMNNLPPLWQPSPRKSSCSSCSQSGSADGGSTNGCNHERAPLKLLCDNMKYQILSRAFYGWLAYCRHLSTVRTHLSALVNHMIVSPDLPCDAGQGLTASIWEKYIQDSTTYPEQELLRLIYYGGVQPEIRRAVWPFLLGHYQFGMTEMERKEVDEQIHACYAQTMSEWLGCEAIVRQRERESHAAALAKCSSGASLDSHLHRMLHRDSTISNESSQSCSSGRQNLRLQSDSSSSTQVFESVDEVEQTEAEGRSEEKHPKIPNGNPANGTCSPDSGHPSSHNFSSGLSEHSEPSLSTEDSVLDAQRSLPAVFRPGDSSVEDGQSSEATTSRDEAPREELAVQDSLESDLLANESLEEFMSIPGSLDVALPEKDGAVMDGWPGEADKPSRADSEDNLSEEPEMESLFPALASLAVTSSANNEASPVSSSGVTYSPELLDLYTVNLHRIEKDVQRCDRSYWYFTAANLEKLRNIMCSYIWQHIEIGYVQGMCDLLAPLLVILDDEALAFSCFTELMKRMNQNFPHGGAMDTHFANMRSLIQILDSELFELMHQNGDYTHFYFCYRWFLLDFKRELVYDDVFSVWETIWAAKHVSSAHYVLFIALALVEVYRDIILENNMDFTDIIKFFNEMAERHNAKQILQLARDLVHKVQILIENK
modifications: full-length
For B2, the “Average logFC” value amounted to 1.34, the “M1-1 Log2 Median Normalized” value came out at 1.5, the “M1-2 Log2 Median Normalized” value turned out to be 0.707 and the “M2-1 Log2 Median Normalized” value is 1.4015. The “M2-2 Log2 Median Normalized” value stood at 1.339 and the change result is reported as “up”.

B3: Q8BW75 (protein, UniProt Q8BW75 1-520, looked up)
chain: MSNKSDVIVVGGGISGMAAAKLLHDCGLSVVVLEARDRVGGRTYTIRNKNVKYVDLGGSYVGPTQNRILRLAKELGLETYKVNEVERLIHFVKGKSYAFRGPFPPVWNPITYLDNNNLWRTMDEMGQEIPSDAPWKAPLAEEWDYMTMKELLDKICWTKSTKQIATLFVNLCVTAETHEVSALWFLWYVKQCGGTTRIISTTNGGQERKFIGGSGQVSERIKDILGDRVKLERPVIHIDQTGENVIVKTLNHEIYEAKYVISAIPPALGMKIHYSPPLPMLRNQLISRVPLGSVIKCMVYYKEPFWRKKDFCGTMVIEGEEAPIAYTLDDTKPDGTYAAIMGFILAHKARKLVRLTKEERLRKLCELYAKVLNSQEALQPVHYEEKNWCEEQYSGGCYTTYFPPGILTQYGRVLRQPVGKIFFAGTETASHWSGYMEGAVEAGERAAREILHAIGKIPEDEIWQPEPESLDVPARPITSTFLERHLPSVPGLLKLFGLTTILSATALGFLAHKRGLFVHF
modifications: full-length
B3: the “Average logFC” value is given as −1.176, the “M1-1 Log2 Median Normalized” value is listed as −0.94, the “M1-2 Log2 Median Normalized” value is −1.056 and the “M2-1 Log2 Median Normalized” value is −1.8625. The “M2-2 Log2 Median Normalized” value is reported as −1.177 and the change result is “down”.

B4: Q8C196 (protein, UniProt Q8C196 1-1500, looked up)
chain: MTRILTACKVVKTLKSGFGFANVTTKRQWDFSRPGIRLLSVKAKTAHIVLEDGTKMKGYSFGHPSSVAGEVVFNTGLGGYPEALTDPAYKGQILTMANPIIGNGGAPDTTARDELGLNKYMESDGIKVAGLLVLNYSNDYNHWLATKSLGQWLQEEKVPAIYGVDTRMLTKIIRDKGTMLGKIEFEGQSVDFVDPNKQNLIAEVSTKDVKVFGKGNPTKVVAVDCGIKNNVIRLLVKRGAEVHLVPWNHDFTQMEYDGLLIAGGPGNPALAQPLIQNVKKILESDRKEPLFGISTGNIITGLAAGAKSYKMSMANRGQNQPVLNITNRQAFITAQNHGYALDNTLPAGWKPLFVNVNDQTNEGIMHESKPFFAVQFHPEVSPGPTDTEYLFDSFFSLIKKGKGTTITSVLPKPALVASRVEVSKVLILGSGGLSIGQAGEFDYSGSQAVKAMKEENVKTVLMNPNIASVQTNEVGLKQADAVYFLPITPQFVTEVIKAERPDGLILGMGGQTALNCGVELFKRGVLKEYGVKVLGTSVESIMATEDRQLFSDKLNEINEKIAPSFAVESMEDALKAADTIGYPVMIRSAYALGGLGSGICPNKETLIDLGTKAFAMTNQILVERSVTGWKEIEYEVVRDADDNCVTVCNMENVDAMGVHTGDSVVVAPAQTLSNAEFQMLRRTSVNVVRHLGIVGECNIQFALHPTSMEYCIIEVNARLSRSSALASKATGYPLAFIAAKIALGIPLPEIKNVVSGKTSACFEPSLDYMVTKIPRWDLDRFHGTSSRIGSSMKSVGEVMAIGRTFEESFQKALRMCHPSVDGFTPRLPMNKEWPANLDLKKELSEPSSTRIYAIAKALENNMSLDEIVRLTSIDKWFLYKMRDILNMDKTLKGLNSDSVTEETLRKAKEIGFSDKQISKCLGLTEAQTRELRLKKNIHPWVKQIDTLAAEYPSVTNYLYVTYNGQEHDIKFDEHGIMVLGCGPYHIGSSVEFDWCAVSSIRTLRQLGKKTVVVNCNPETVSTDFDECDKLYFEELSLERILDIYHQEACNGCIISVGGQIPNNLAVPLYKNGVKIMGTSPLQIDRAEDRSIFSAVLDELKVAQAPWKAVNTLNEALEFANSVGYPCLLRPSYVLSGSAMNVVFSEDEMKRFLEEATRVSQEHPVVLTKFVEGAREVEMDAVGKEGRVISHAISEHVEDAGVHSGDATLMLPTQTISQGAIEKVKDATRKIAKAFAISGPFNVQFLVKGNDVLVIECNLRASRSFPFVSKTLGVDFIDVATKVMIGESIDEKRLPTLEQPIIPSDYVAIKAPMFSWPRLRDADPILRCEMASTGEVACFGEGIHTAFLKAMLSTGFKIPQKGILIGIQQSFRPRFLGVAEQLHNEGFKLFATEATSDWLNANNVPATPVAWPSQEGQNPSLSSIRKLIRDGSIDLVINLPNNNTKFVHDNYVIRRTAVDSGIALLTNFQVTKLFAEAVQKSRTVDSKSLFHYRQYSAGKAA
modifications: full-length
Take B4: the “Average logFC” value is listed as −1.21, the “M1-1 Log2 Median Normalized” value is given as −1.302, the “M1-2 Log2 Median Normalized” value is −0.76 and the “M2-1 Log2 Median Normalized” value is −1.9525. The “M2-2 Log2 Median Normalized” value is listed as −0.825 and the change result is given as “down”.

B5: Q8C159 (protein, UniProt Q8C159 1-568, looked up)
chain: MTEAEVGAEDLDTLLDELDYLPGHFHLEMQLNFEPRSPAQLRARDLKLQREGLRQELELVATPQLPAVRHLLGTFSFYLEELGDAREHFLEVARKDPGNLNAWANLAHVYGQLGQEEEEEASAGRLASLMGLEGDPEDAGDPRLRAARCLAEQGYAHGFDVGCASPEERAQVLEAGIALYDKALGYGQQIPIEEKRSWYFTMATLFIRLDGIFLEMGSEEQKRLPAFNRTLALLGEVLKSSDSRHQALAWCYVGMLLERKDTFSTTPMGVHEYGYSGTEPLDCFGKAIEIAKNQPPILNRLAKIFHFLGKQDMAVGTCNMVLAVLTDPELNWQAYCTRAKVRIRAYVHDLERAKVGLGGLPDRNHLACAKADLEEVVKVCPSLRTYLDISQVYYYMGVDAMRELLAVDEAALNQALVFLAKAGELELGDTLPELQLLRGKCLRVQGEDANAAACFKRAVELDDEGSSHTEGFGCLLEALLAQWSQAQLSDGEVGYEVDVWLRHAQGKYPAARLRQELQRVWRGHTEEVLGLARALVAQGRPALVRLLFETMEHEGEDAGGSGKSRVSS
modifications: full-length
Turning to B5, the “Average logFC” value was −1.177, the “M1-1 Log2 Median Normalized” value is given as −0.633, the “M1-2 Log2 Median Normalized” value was −1.446 and the “M2-1 Log2 Median Normalized” value is −1.1765. Besides, the “M2-2 Log2 Median Normalized” value is reported as −1.271 and the change result is listed as “down”.
